# Laboratory results: patent US20090118195A1, “Molecules Which Promote Hematopoiesis” (priority 2004, published 2009)
# *1 amine or outer side, *2 acyl side, *3 side chain or, on linkers, in order; H or OH if unused. Primed or numbered codes have the meaning given here. Where no end group is shown, it is not given here. [ ]: non-standard residue; d: D form. Als″ = residue of 5-aminolevulinic acid, O=C(CCC(=O)[*:2])CN[*:1]
# T1: EPO receptor (on TF-1 cells) (UniProt P19235 25-508, limits assumed)
# T1 sequence (looked up): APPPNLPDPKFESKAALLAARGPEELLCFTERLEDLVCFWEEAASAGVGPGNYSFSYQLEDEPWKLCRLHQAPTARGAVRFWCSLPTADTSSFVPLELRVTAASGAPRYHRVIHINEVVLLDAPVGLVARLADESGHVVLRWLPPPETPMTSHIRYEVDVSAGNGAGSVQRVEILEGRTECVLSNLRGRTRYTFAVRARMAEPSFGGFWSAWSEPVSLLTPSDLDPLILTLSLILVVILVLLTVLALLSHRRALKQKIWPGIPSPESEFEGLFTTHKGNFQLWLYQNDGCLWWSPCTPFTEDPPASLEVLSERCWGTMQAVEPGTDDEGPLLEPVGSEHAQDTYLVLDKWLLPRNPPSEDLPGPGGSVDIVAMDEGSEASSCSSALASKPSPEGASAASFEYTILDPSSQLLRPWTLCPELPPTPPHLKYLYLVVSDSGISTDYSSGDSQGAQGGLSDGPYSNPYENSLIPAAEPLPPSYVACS
# B1: SEQ ID NO 4: GGTYSCHFGKLTWVCKPQGG (peptide)
# peptide: GGTYSCHFGKLTWVCKPQGG
# B2: SEQ ID NO 5: GGTYSCHFGRLTWVCKPQGG (peptide)
# peptide: GGTYSCHFGRLTWVCKPQGG
# B3: SEQ ID NO 7: GGTYSCHF-(Als)-LTWVCKPQGG (peptide)
# peptide: GGTYSCHF[Als″]LTWVCKPQGG
# modifications: cysteine pairing not given here
# B4: SEQ ID NO 8: GGTYSCHF-(Als)-LTWVCKKQGG (peptide)
# peptide: GGTYSCHF[Als″]LTWVCKKQGG
# modifications: cysteine pairing not given here
# B5: SEQ ID NO 2: GGTYSCHFGKLTWVCKKQGG (peptide)
# peptide: GGTYSCHFGKLTWVCKKQGG
# B6: GGTYSCHFGPLTWVCKKQGG (peptide)
# peptide: GGTYSCHFGPLTWVCKKQGG
# B7: GGTYSCHFAKLTWVCKKQGG (peptide)
# peptide: GGTYSCHFAKLTWVCKKQGG
# B8: SEQ ID NO 6: GGTYSCHFGRLTWVCKKQGG (peptide)
# peptide: GGTYSCHFGRLTWVCKKQGG
# Target: T1, EPO receptor (on TF-1 cells)
# Experiment: cell-based or functional assay
# Conditions: not given
row,"EC50, TF-1 cell proliferation (MTT assay) [µM]",Molecule
1,4.66,B1
2,5.16,B2
3,5.26,B3
4,5,B4
5,3.28,B5
6,2.52,B6
7,5.04,B7
8,4.97,B8

# Tested on: TF-1 cells
# Experiment: Proliferation assay with TF-1 cells by MTT (monomers)
# Assay type: cell-based
# Conditions: MTT-assay data, dose-response calculated with GraphPad
# Description: Proliferation assay with TF-1 cells by MTT
# TF-1 Cells in logarithmic growth phase (˜2.10^5-1.10^6 cells/ml; RPMI medium; 20% fetal calf serum; supplemented with Penicillin, streptomycin, L-Glutamine; 0.5 ng/ml Interleukin 3) are washed (centrifuge 5 min. 1500 rpm and resuspend in RPMI complete without IL3 at 500.000 cells/ml) and precultured before start of the assay for 24 h without IL-3. At the next day the cells are seeded in 24- or 96-well plates usually using at least 6 concentrations and 4 wells per concentration containing at least 10.000 cells/well per agent to be tested. Each experiment includes controls comprising recombinant EPO as a positive control agent and wells without addition of cytokine as negative control agent. Peptides and EPO-controls are prediluted in medium to the desired concentrations and added to the cells, starting a culture period of […] under standard culture conditions (37° C., 5% carbon dioxide in the gas phase, atmosphere saturated with water). Concentrations always refer to the final concentration of agent in the well during this 4-day culture period.
# At day 4, prior to start of the analysis, a dilution series of a known number of TF-1 cells is prepared in a number of wells (01250015000/10000120000150000 cells/well in 100 μl medium). These wells are treated in the same way as the test wells and later provide a calibration curve from which cell numbers can be determined. Having set up these reference wells, MTS and PMS from the MTT proliferation kit (Promega, CellTiter 96 Aqueous non-radioactive cell proliferation assay) are thawed in a 37° C. waterbath and 100 μl of PMS solution are added to 2 ml of MTS solution. 20 μl of this mixture are added to each well of the assay plates and incubated at 37° C. for 3-4 h. 25 μl of 10% sodium dodecylsulfate in water are added to each well prior to measurement E492 in an ELISA Reader.
# Using graphical evaluations as shown in FIGS. 17 and 18 based on calculations of the dose-response relationship using the program GraphPad the following EC50 values were determined on the basis of MTT-assay data: […]
Molecule,EC50 [µM],EC50 values
GGTYSCHF-(Als)-LTWVCKPQGG [SEQ ID NO 7],5.26,–
GGTYSCHF-(Als)-LTWVCKKQGG [SEQ ID NO 8],5,–
GGTYSCHFGGLTWVCKPQGG,–,no activity
